Results as given in patent US20100015637A1 (AbbVie / Abbott, published 2010).

Experiments:
[1] = target: recombinant human PlGF-1 (comprising amino acids 1-131) expressed in E. coli (R&D Systems) (human) (UniProt P49763); experiment: EIA, supernatant antibody captured on anti-mouse IgG Fc, biotin labeled human PlGF-1 at 1500 pg/mL
[2] = target: recombinant human PlGF-1 (comprising amino acids 1-131) expressed in E. coli (R&D Systems) (human) (UniProt P49763); experiment: EIA of clone supernatants, antibody captured on anti-mouse IgG Fc, biotin labeled human PlGF-1
[3] = target: recombinant human PlGF-1 (comprising amino acids 1-131) expressed in E. coli (R&D Systems) (human) (UniProt P49763); experiment: EIA of 24 well cultures, antibody captured on anti-mouse IgG Fc, biotin labeled human PlGF-1
[4] = target: T1, human PlGF-1 (as used in Example 13; source not specified) (human) (UniProt P49763); experiment: … PlGF-1 assay; added sFlt-1 1,181 pM; 27.1 pM PlGF-1 without sFlt-1
T1 sequence: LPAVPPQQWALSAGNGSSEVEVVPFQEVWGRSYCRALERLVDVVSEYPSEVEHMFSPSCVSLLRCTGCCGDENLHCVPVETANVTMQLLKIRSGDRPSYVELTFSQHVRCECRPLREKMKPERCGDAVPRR

[5] = target: T1, human PlGF-1 (as used in Example 13; source not specified) (human); experiment: … PlGF-1 assay; added sFlt-1 93 pM; 6.8 pM PlGF-1 without sFlt-1
[6] = target: T1, human PlGF-1 (as used in Example 13; source not specified) (human); experiment: … PlGF-1 assay; added sFlt-1 1,181 pM; 13.3 pM PlGF-1 without sFlt-1
[7] = target: T1, human PlGF-1 (as used in Example 13; source not specified) (human); experiment: … PlGF-1 assay; added sFlt-1 389 pM; 27.1 pM PlGF-1 without sFlt-1
[8] = target: T1, human PlGF-1 (as used in Example 13; source not specified) (human); experiment: … PlGF-1 assay; added sFlt-1 788 pM; 27.1 pM PlGF-1 without sFlt-1
[9] = target: T1, human PlGF-1 (as used in Example 13; source not specified) (human); experiment: … PlGF-1 assay after 16 h incubation of PlGF-1 with sFlt-1 up to 12 nM (data not shown)
[10] = target: T1, human PlGF-1 (as used in Example 13; source not specified) (human); experiment: … PlGF-1 assay; added sFlt-1 186 pM; 6.8 pM PlGF-1 without sFlt-1
[11] = target: T1, human PlGF-1 (as used in Example 13; source not specified) (human); experiment: … PlGF-1 assay; added sFlt-1 93 pM; 40.5 pM PlGF-1 without sFlt-1
[12] = target: T1, human PlGF-1 (as used in Example 13; source not specified) (human); experiment: … PlGF-1 assay; added sFlt-1 186 pM; 40.5 pM PlGF-1 without sFlt-1
[13] = target: T1, human PlGF-1 (as used in Example 13; source not specified) (human); experiment: … PlGF-1 assay after 16 h incubation of PlGF-1 with sFlt-1 (data not shown)
[14] = target: T1, human PlGF-1 (as used in Example 13; source not specified) (human); experiment: … PlGF-1 assay; added sFlt-1 93 pM; 13.3 pM PlGF-1 without sFlt-1
[15] = target: T1, human PlGF-1 (as used in Example 13; source not specified) (human); experiment: … PlGF-1 assay; added sFlt-1 788 pM; 13.3 pM PlGF-1 without sFlt-1
[16] = target: T1, human PlGF-1 (as used in Example 13; source not specified) (human); experiment: … PlGF-1 assay; added sFlt-1 788 pM; 6.8 pM PlGF-1 without sFlt-1
[17] = target: T1, human PlGF-1 (as used in Example 13; source not specified) (human); experiment: … PlGF-1 assay; added sFlt-1 788 pM; 40.5 pM PlGF-1 without sFlt-1
[18] = target: T1, human PlGF-1 (as used in Example 13; source not specified) (human); experiment: … PlGF-1 assay; added sFlt-1 93 pM; 3.6 pM PlGF-1 without sFlt-1
[19] = target: T1, human PlGF-1 (as used in Example 13; source not specified) (human); experiment: … PlGF-1 assay; added sFlt-1 788 pM; 3.6 pM PlGF-1 without sFlt-1
[20] = target: T1, human PlGF-1 (as used in Example 13; source not specified) (human); experiment: … PlGF-1 assay; added sFlt-1 186 pM; 3.6 pM PlGF-1 without sFlt-1
[21] = target: T1, human PlGF-1 (as used in Example 13; source not specified) (human); experiment: … PlGF-1 assay; added sFlt-1 186 pM; 13.3 pM PlGF-1 without sFlt-1
[22] = target: T1, human PlGF-1 (as used in Example 13; source not specified) (human); experiment: … PlGF-1 assay; added sFlt-1 1,181 pM; 6.8 pM PlGF-1 without sFlt-1
[23] = target: T1, human PlGF-1 (as used in Example 13; source not specified) (human); experiment: … PlGF-1 assay; added sFlt-1 186 pM; 27.1 pM PlGF-1 without sFlt-1
[24] = target: T1, human PlGF-1 (as used in Example 13; source not specified) (human); experiment: … PlGF-1 assay; added sFlt-1 1,181 pM; 40.5 pM PlGF-1 without sFlt-1
[25] = target: T1, human PlGF-1 (as used in Example 13; source not specified) (human); experiment: … PlGF-1 assay; added sFlt-1 1,181 pM; 3.6 pM PlGF-1 without sFlt-1
[26] = target: T1, human PlGF-1 (as used in Example 13; source not specified) (human); experiment: … PlGF-1 assay; added sFlt-1 93 pM; 27.1 pM PlGF-1 without sFlt-1
[27] = target: T1, human PlGF-1 (as used in Example 13; source not specified) (human); experiment: … PlGF-1 assay; added sFlt-1 389 pM; 3.6 pM PlGF-1 without sFlt-1
[28] = target: T1, human PlGF-1 (as used in Example 13; source not specified) (human); experiment: … PlGF-1 assay; added sFlt-1 389 pM; 13.3 pM PlGF-1 without sFlt-1
[29] = target: T1, human PlGF-1 (as used in Example 13; source not specified) (human); experiment: … PlGF-1 assay; added sFlt-1 389 pM; 40.5 pM PlGF-1 without sFlt-1
[30] = target: T1, human PlGF-1 (as used in Example 13; source not specified) (human); experiment: … PlGF-1 assay; added sFlt-1 389 pM; 6.8 pM PlGF-1 without sFlt-1

B1: anti-human PlGF-1 monoclonal antibody from clone 2-826-127 (antibody, V domains shown)
VH: QVQLKQSGPGLVQPSQSLSITCTVSGFSLTTYGIHWVRQSPGKGLEWLGVMWSGGDTDYDAAFISRLSISKDNSKSQVFFKMNSLQANDTGIYYCARYRFYGMDYWGQGTSVTVSS
VL: AIQMTQSSSSFSVSLGDRVTITCKASEDIYNRFAWYQQKPGNAPRLLISGAASLEAGVPSRFSGSGSGQDYTLSITSLQTEDVATYYCQQYWSTPWTFGGGTKLEIKR
[1]
  EIA signal relative to background (fold over background): > 3
[2]
  EIA signal relative to background (fold over background): > 3
[3]
  EIA signal relative to background (fold over background): > 3

B2: sFlt-1 (as used in Example 13; preparation not specified) (receptor, not shown: a dimerising Fc or GST; small tags and cut ends)
chain: SKLKDPELSLKGTQHIMQAGQTLHLQCRGEAAHKWSLPEMVSKESERLSITKSACGRNGKQFCSTLTLNTAQANHTGFYSCKYLAVPTSKKKETESAIYIFISDTGRPFVEMYSEIPEIIHMTEGRELVIPCRVTSPNITVTLKKFPLDTLIPDGKRIIWDSRKGFIISNATYKEIGLLTCEATVNGHLYKTNYLTHRQTNTIIDVQISTPRPVKLLRGHTLVLNCTATTPLNTRVQMTWSYPDEKNKRASVRRRIDQSNSHANIFYSVLTIDKMQNKDKGLYTCRVRSGPSFKSVNTSVHI
modifications: glycosylated; the chimera is dimerised through its Fc, if that preparation was the one used
[4]
  Measured Human PlGF-1: 5.4 pM
  percent change in measured PlGF-1: -80%
[5]
  Measured Human PlGF-1: 3.1 pM
  percentage of inhibition: -55%
[6]
  Measured Human PlGF-1: 3 pM
  percent change in measured PlGF-1: -77%
[7]
  Measured Human PlGF-1: 7.5 pM
  percent change in measured PlGF-1 vs. no sFlt-1: -72%
[8]
  Measured Human PlGF-1: 6.1 pM
  percent change in measured PlGF-1 vs. without sFlt-1: -78%
[9]
  % inhibition of the human PlGF-1 assay: 90%
[10]
  Measured Human PlGF-1: 2.4 pM
  percent change in measured PlGF-1 vs. no sFlt-1: -65%
[11]
  Measured Human PlGF-1: 25.9 pM
  percent change in measured PlGF-1: -36%
[12]
  Measured Human PlGF-1: 17.8 pM
  percent change in measured PlGF-1: -56%
[13]
  molar excess of sFlt-1 for 90% maximum inhibition: 40 fold
[14]
  Measured Human PlGF-1: 6.7 pM
  percent change in measured PlGF-1: -49%
[15]
  Measured Human PlGF-1: 3.3 pM
  percent change in measured PlGF-1 vs. no sFlt-1: -76%
[16]
  Measured Human PlGF-1: 1.9 pM
  percent change in measured PlGF-1: -72%
[17]
  Measured Human PlGF-1: 9.2 pM
  percent change in measured PlGF-1 vs. without sFlt-1: -77%
[18]
  Measured Human PlGF-1: 1.5 pM
  percent change in measured PlGF-1 vs. no sFlt-1: -58%
[19]
  Measured Human PlGF-1: 1.2 pM
  percent change in measured PlGF-1 versus no sFlt-1: -66%
[20]
  Measured Human PlGF-1: 1.2 pM
  percent change in measured PlGF-1: -65%
[21]
  Measured Human PlGF-1: 4.9 pM
  percent change in measured PlGF-1: -63%
[22]
  Measured Human PlGF-1: 1.9 pM
  percent change in measured PlGF-1 vs. without sFlt-1: -72%
[23]
  Measured Human PlGF-1: 10.6 pM
  percent change in measured PlGF-1 vs. no sFlt-1: -61%
[24]
  Measured Human PlGF-1: 7.8 pM
  percent change in measured PlGF-1 versus no sFlt-1: -81%
[25]
  Measured Human PlGF-1: 1.3 pM
  percent change in measured PlGF-1 versus without sFlt-1: -64%
[26]
  Measured Human PlGF-1: 15.6 pM
  percent change in measured PlGF-1 versus no sFlt-1: -42%
[27]
  Measured Human PlGF-1: 1.2 pM
  percent change in measured PlGF-1 versus without sFlt-1: -67%
[28]
  Measured Human PlGF-1: 3.8 pM
  percent change in measured PlGF-1 vs. no sFlt-1: -72%
[29]
  Measured Human PlGF-1: 12.2 pM
  percent change in measured PlGF-1 vs. no sFlt-1: -70%
[30]
  Measured Human PlGF-1: 2 pM
  percent change in measured PlGF-1: -70%

B3: anti-human PlGF-1 monoclonal antibody from clone 1-255-189 (antibody, V domains shown)
VH: QVHLQQSGAELMKPGASVKISCKATGYTFSSYWIEWVKQRPGHGLEWIGEILPGSVSNNFNEKFKDKATLTADPSSNTAYIQVSSLTSEDSAVYYCARSTGFYYGGNYFDHWGQGTTLAVSS
VL: DVVMTQTPLSLPVSPGDQASISCRSSQSLVHSNGHTYLHWYLQKPGQSPKLLIYKVSNRFSGVPDRVSGSGSGTDFTLKISRVEAEDLGVYFCSQSTHVPPTFGGGTKLEIKR
[1]
  EIA signal relative to background (fold over background): 3
[2]
  EIA signal relative to background (fold over background): > 3
[3]
  EIA signal relative to background (fold over background): > 3
